Tested on: Bacillus subtilis DB104 (SP-AmyQ fusion secretion)
Assay: AmyQ secretion efficiency, weighted average sort bin (1 = best secretion, 10 = worst) (bin number (weighted average, 1-10)); higher = lower secretion efficiency
Procedure, shortened: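 Secretion score gives the read-frequency-weighted average bin number, normalised to beads per bin, with low-abundance sequences left out. A B. subtilis DB104 library expressing mature AmyQ fused to designed signal peptides, integrated at amyE, was encapsulated with fluorescein-starch at about 0.3 cells per ~65 nL alginate bead. Beads were grown about 13 h at room temperature, stained with nile red, and the occupied ones were sorted by large-particle flow cytometry into 10 equally populated bins by green/red fluorescence ratio before the amplicons from each bin were Illumina-sequenced.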

Row | Sequence | AmyQ secretion efficiency
1 | MAIIIAIIAAVIVIAALITFNVVNASPG | 8.99
2 | MFGMSTISLLIIFLLASAVLAKPIEAHTV | 2.54
3 | MRMLWRSLALCGLALTLAPCAQVAEP | 6.05
4 | MKKAAAVLLSLGLVFVFVYGAGHVAEAKTK | 2.4
5 | MKLSVKIAGVLTVAAAAMTAKMYMTAKGN | 6.8
6 | MKWMCSICCAAVLLAGGAAQSEAV | 4.64
7 | MKKKLAAGLTASAIVGTTLVEDEEDAEAATI | 6.91
8 | MKKQIITATTAVVLGSTLFAGAASGQSI | 2.03
9 | MKKKQVMTLNSSLALTAAAGLGLTALHSAPAAKAAPL | 4.06
10 | MLMLLSTLLIGIMLLTFAPSAFAKQD | 4.38
11 | MKKRLIAPMLLSAASLAFFAMVAVIAQAAAY | 5.95
12 | MKKRLIAPMLLSAASLAFFAMSGSDQAAAY | 4.18
13 | MKRLFMKASLVLFAVVFVFAVKGAPAKADEE | 2.81
14 | MKVLLSALLLLLFAFEPSGSGKKL | 5.88
15 | MKKLKRKKVILGALGTSYISADSS | 7.53
16 | MNLRKILLSSALSLGMLVSAAPVLYTSS | 7.31
17 | MKKSQYFIVFICFFVLFSVHPIAAAEADS | 3.09
18 | MKKRITYSLLALLAVVAFAFTDSSKTKAAEA | 4
19 | MKKAFLVFLSVVLVTTVFLVKQQESVAQTKQL | 2.14
20 | MLLKWMSGLLLVAVGFSFTQVMVHAGET | 5.02
21 | MKKWLIIAVSLAIAIVLFMYTKGEAKAAED | 2.66
22 | MKSKGSIMACLILFSFTITTFISVETISAFSN | 5.39
23 | MLCVMMLLFSSFPVSAQAKDQ | 5.51
24 | MKKRLIQVMIMFTLLLRKRRSADAADS | 6.79
25 | MKKCLLFLTTIALILSLSTNAFAANR | 1.56
26 | MKWMCKKCCKKVLLAGGAAQAEAV | 7.14

Row | Sequence | AmyQ secretion efficiency
27 | MGLGKKLSVAVAASFMSLSISLPGSQAAEG | 2.3
28 | MKLKSKLLLSCLALSTVFVATTIVNAPTH | 5.07
29 | MKKFLVSLIIGTFVISVPFMANAQSD | 1.69
30 | MKLKSKLLLSCLALSTVFVATTIANAPTR | 6.08
31 | MRMLWRSLALCGLALTLAKRRCAQAAEP | 6.64
32 | MKRLLSTLLIGIMLLTFAPSAFAKKR | 2.03
33 | MFTFSGSMFLVGLSAALMSISLFSATASAAST | 1.64
34 | MTMLRKIIGWILLLCIIVSVAATITLIPLFAFTVIASGKEV | 4.26
35 | MKKKQRAGLTASAIVGTTLVVTPAEAATI | 6.45
36 | MKKKKRRIVSILFMFGLVMGFSQFQPSTVFAADK | 3.29
37 | MSTGTILVIASILLSFLSVLSGGHHESKAFPV | 6.64
38 | MKRIRIPMTLALGAALTIAPLSFGSAEEN | 4.51
39 | MRGKSAVLLSLIMLIAGFLISFHFQM | 7.78
40 | MKRSIRTGTYCLLITLLTMGGMIASPASAAGT | 3.22
41 | MKKRLIAPMLLSAASLAFFAMSGSAQPAAY | 5.92
42 | MKKWMITIAMLILAGIALFVFIRKKRRLKSHKT | 6.07
43 | MKRFSTAYLLLGILCSAAVFLIGAPSRALGAPV | 1.61
44 | MLCVMMLLFSAIASFPVSAQQKDQ | 6.18
45 | MHLIRAAGAVCLAVVLIAGCRFNEDQHQAEEENT | 4.77
46 | MKRLLVSLRVWMVFLMNWVTPDRKTAARAVY | 5.96
47 | MKKRLKRKRVLVPALIMSGITLIEANKK | 6.77
48 | MKKTIMSFVAVAALSTTAFGAHASGKEI | 2.91
49 | MKKRKQRPRLLSAASLAFFAMSGSAQAAAY | 6.55
50 | MMTKSKLLLSCLALSTVFVATTIANAPTH | 5.2
51 | MRPVFPLILSAVLFLSCFFFGARQTEASASKR | 1.8
52 | MRSYIKVLTMCFLGLILFVPTALMDNS | 6.46

Row | Sequence | AmyQ secretion efficiency
53 | MKKRLIGFLVLVPALIMSGITLYEANKK | 5.95
54 | MTKKAWFLPLVCVLLISGWLAPAASCSAQTT | 3.03
55 | MKLSVKIAGVLTVAAAAMTAKMYSTAKGN | 6.41
56 | MHLIRAAGAVCLAVVLIAGCRFNEDQHQAEHENT | 3.89
57 | MPYLKRVLLLLVTGLFMSLFAVTATASVQTG | 1.13
58 | MKLAKRVSALTPSTTLAITCKAKEL | 7.57
59 | MKLKSKLLLSCLALSTVFVATTIANSPTH | 3.78
60 | MKKIWIGMLAAAVLLLMVPKVGLADAA | 3.24
61 | MKRLTLVCSIVFILEDLFYDLDIGTIPIQDLPVYEASAKTA | 7.06
62 | MKKWMAGLFLAAAVLLCLMVPQQIQGKKK | 4.71
63 | MKRIRIPMTLALGAALTIAPLSFASREEN | 6.16
64 | MRGKSAVLLSLIMLIAGFLDDDEEDSFSFQM | 8.01
65 | MKTKTLFIFSAILTLSIFAPNETFARRR | 2.28
66 | MKKWLKKKRKKAIAIVLFMYTKGEAKAAGM | 7.14
67 | MKWMCSICCAAVLLAGGAAQLEAV | 3.67
68 | MKQGRTFLTSFMLLAMTGQTALAKDV | 4.71
69 | MKLRKVLTGSVLSLGLLRKKSPAFATSP | 8.19
70 | MKLAKRVSALTPSTTLAIISTGSAKAKEL | 7.54
71 | MKLKKRFLVALTMCGGLFVTPAKAVKT | 7.15
72 | MKKRFFGPIILAFAGAIAIPS | 9.34
73 | MKKLLAAGIIGLLTVSIASPGFAAEK | 2.84
74 | MKKQIITATTAVVLGSTLFAGANSAQSI | 3.08
75 | MKRIRILALGAALTIAPLSFASAEEN | 3.38
76 | MFMMLGSLLITAGILVFFAVVVKDVFAAGL | 6.51
77 | MPIKKKVMMCLAVTLVFGSMRKRRRKNSGGFKE | 8.69
78 | MKLKKRVSMFLVALTMCGGLFVTPQAKAVKT | 3.89

Row | Sequence | AmyQ secretion efficiency
79 | MTKKAWFLPLVCVLLISGWLAPAASASHQTT | 2.01
80 | MKKRFFGPIILAFILFAGAIEIPS | 5.48
81 | MRKKRQVCLWILVLLLSCLSGKSAYAATS | 2.64
82 | MKRKLRRKRRKSALSLGLLVSAPTASFAAES | 7.05
83 | MKVLLSALLLLLFAFEPSFSGKKL | 8.07
84 | MKKLLAAGIIGLLTVSIASPSFTAEK | 6.63
85 | MRKKKWMVGLLAGCLAAGGFSYNAFATEN | 3.58
86 | MRKKRAVLLSLIMLIAGFLISFSFQM | 7.34
87 | MKTLRTKCRKKILSGVIFFGLKIDAKDI | 6.97
88 | MRKKLKWLSFLLGFIILLFLFKYQPSNNDS | 7.17
89 | MKKKIVAGLAVSAVVIVAMAAAIAEAKTI | 6.55
90 | MRIFKKAVFVIMISFLIATVNVNTAHAEDD | 3.86
91 | MLKKKWMTRGLAGCLAAGGFSYNAFATEN | 6.77
92 | MKWMCSICCAAVLLAGGAAQMEAV | 3.22
93 | MKKKLAAGLTASAIVGTTLVVTPYEAATI | 5.36
94 | MKTKTLFIFSAILTFAPNETFAQTA | 2.34
95 | MFNRLFRVCFLAALIMAFEEEDDEVYAQKP | 4.05
96 | MKTKTLFIFSAILTLSIFAPNETFAQRR | 1.31
97 | MKKRRKKLLAAGIIGLLTVSIASPSFAAEK | 3.36
98 | MKNMSCKLVVSVTLFFSFLTIGPLVFPFAHAQNS | 4.97
99 | MLKRTSFVSSLFISSAVLLSILLPSGQAHADDD | 4.33
100 | MFNRLFRVCFLAALIMAFTLPNSVYSQKP | 3.32
101 | MKLKSKLLLSCLALSTVFVATTIANNPTH | 5.17
102 | MKKAFLVFLSVVLVTTVFLVKQQESVAQRKQL | 2.03
103 | MRPVFPYTLSAVLFLSCFFGARQTEASASKR | 2.08
104 | MKSKWMSGLLLVAVGFSFTQVMVHHGET | 6.33

Row | Sequence | AmyQ secretion efficiency
105 | MKKKQVMLALTAAAGLGLTALHSAPAAKLAPL | 4.96
106 | MLKKKWMVGLLAGCLAAGGFSYNAFATSD | 4.28
107 | MKVLLSALLLLLFALVALSFEPSASGKKL | 3.74
108 | MIAYFGKCLLLVTIMFLGVLFGMSQANHG | 4.69
109 | MKVCQKSIVRSGVSLIIGTFVISVPFMANAQSD | 2.46
110 | MKNMSCKLKKSVTLFFSFLTIGPLAHAQNS | 3.34
111 | MKKAFILSAAAAVGLFTFSIGGVQQASAKEL | 3.67
112 | MRMLWRSLALCGLALTLAPCAQGAEP | 2.58
113 | MGMLFKIIGWILLLCIIPLFAFTVIASGKEV | 2.66
114 | MKKRLIGFLVLVPALIMSGITLAEANKK | 7.38
115 | MAIIIAIIAAVIVIAALITFNVCNASPG | 7.28
116 | MKRITINIITMFIAAAVISLTGTAEAASS | 2.16
117 | MRPVFPLILSAVLFLSCFFGARQTEASWSKR | 4.13
118 | MNLRKILLSSALSLGMLEDDAPVLATSS | 2.76
119 | MKMKSGMEQAVSVLLLLSRLPVQASNTSE | 5.73
120 | MRSYIKVLTMCFLGLILFVPTKLADNS | 5.85
121 | MKKQIITATTAVVLGSTLFAGATGFAFAPASAQSI | 3.63
122 | MKVLLSALLLLLFAEEDSASGKKL | 6.1
123 | MKRLFMKASLVLFAVVFVFAVKGAKRAKAETH | 2.04
124 | MKLAKRINMVSALTPSTTLAITAKAKEL | 7.42
125 | MKRLLSTLLIGIMLLTFAPSCFAKQD | 3.09
126 | MRKYTVIASILLSFLSVLASTVFVSKAFPV | 8.75
127 | MKSKGSIMACLILFSFTITIILVTLIIVATFINTETISAFSN | 6.84
128 | MLKKKWMVGLLAGCLAAGKKKYNAFATEN | 7.66

— the supplement of paper PMC9942255
